Assay results published in the supplement of paper PMC10567573.
± gives the standard deviation.

Assay: protein stability index of a GFP-peptide fusion (GPS, HEK-293T) (PSI 1-6); higher = more stable
[1] = treatment: DMSO, c terminus: a fixed tail appended
[2] = treatment: MLN4924 1 uM, 8 h, c terminus: a fixed tail appended
[3] = treatment: DMSO, c terminus: native
[4] = treatment: MLN4924 1 uM, 8 h, c terminus: native
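Note: 24-mer peptide tiles fused after GFP, lentivirally expressed, FACS-sorted into six equal bins by GFP/DsRed ratio, decoded by Illumina sequencing, PSI is the read-weighted mean bin number.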

| Sequence | protein stability index [1] | protein stability index [2] | protein stability index [3] | protein stability index [4] |
| --- | --- | --- | --- | --- |
| SSKFYDLFLMDLSEGELGGPSEPG [RHOBTB2] | 3.19 ± 0.2 | 3.25 ± 0.34 |  |  |
| SSQKKDTSSSTVVSTQRSQDHFHV [TIA1] | 4.66 ± 0.21 | 4.64 ± 0.25 |  |  |
| SSSCAVHDLIFWRDVKKTGFVFGT [RTN3] | 2.71 ± 0.52 | 2.58 ± 0.52 |  |  |
| SSSSSSSSCYPLIPSTPEEVSADD [MAGEA10] | 5.46 ± 0.33 | 5.5 ± 0.14 |  |  |
| SSTSYRRTFGPPPSLSPGAFSYSS [PRPH] | 3 ± 0.28 | 3.21 ± 0.3 |  |  |
| STAHASAQSLAGGSRRTKEEELQC [TPD52L1] | 5.16 ± 0.15 | 5.12 ± 0.23 |  |  |
| STMTSSVQIYNLSQNIQEDDLQQL [ATL3] | 4.45 ± 0.13 | 4.57 ± 0.31 |  |  |
| STSSSFPSSFPSSSSSSSSSCYPL [MAGEA10] | 3.73 ± 0.11 | 3.82 ± 0.32 |  |  |
| STSSSTQGDPAFPEMNGNGAVAPM [NOL4L] | 4.93 ± 0.34 | 5.05 ± 0.054 |  |  |
| SVAEGYYSHRETVNGSWYIQDLCE [CASP6] | 3.23 ± 0.22 | 3.11 ± 0.35 |  |  |
| SVDDIESETGSTGALETRSLKDHK [C2CD2L] | 5.52 ± 0.3 | 5.43 ± 0.27 |  |  |
| SVIEPVQESSFRSRKIAVEDENDL [MIA2] | 5.05 ± 0.49 | 5.21 ± 0.49 |  |  |
| SVRGYMMSKQRERQLRRRALHPER [RETREG3] | 3.43 ± 0.047 | 3.73 ± 0.31 |  |  |
| SWSAGLHNRYTENSLRGVILDIHF [FUT8] | 2.88 ± 0.67 | 2.86 ± 0.73 |  |  |
| SYQDWQQNLYFNCSSPGVQACSLP [TSPAN10] | 2.32 ± 0.28 | 2.62 ± 0.2 |  |  |
| TCEDDEDEELGGSSRVPVGGGPEA [ZBTB22] | 5.49 ± 0.14 | 5.38 ± 0.61 |  |  |
| TCGVCALELGSTEVLLDHLKAHAE [PLAGL1] | 2.78 ± 0.46 | 2.78 ± 0.42 |  |  |
| TCLMMDMKACQEDDVRLLCHLTPS [INTS3] | 2.69 ± 0.17 | 2.73 ± 0.33 |  |  |
| TDCGKAFLKKSQLTEHKRIHTGKK [ZNF649] | 3.62 ± 0.5 | 3.48 ± 0.42 |  |  |
| TDDRIVVPQRGRSTRVPVASVLI [SPNS1] |  |  | 2.64 ± 0.13 | 2.82 ± 0.42 |
| TDRGNDNWLIKYDCPMDSSSSRDT [PI4K2A] | 4.44 ± 0.2 | 4.42 ± 0.075 |  |  |
| TEALILQLFSQIGPCKNCKMIMDT [TIA1] | 2.75 ± 0.37 | 2.53 ± 0.41 |  |  |

| Sequence | protein stability index [1] | protein stability index [2] | protein stability index [3] | protein stability index [4] |
| --- | --- | --- | --- | --- |
| TEMAASSQGNFEGNFESLDLAEFA [FUNDC2] | 5.21 ± 0.42 | 5.1 ± 0.44 |  |  |
| TGEASENGLEDIDRILERIEDSTG [TCF25] | 5.47 ± 0.074 | 5.46 ± 0.29 |  |  |
| TGELVGPFVSAMPTPMPHNKGTRF [ZBED2] | 3.64 ± 0.11 | 3.79 ± 0.23 |  |  |
| TGLELIAEESNPPLQDFPNSISSD [MIA2] | 5.2 ± 0.097 | 5.33 ± 0.25 |  |  |
| TIRLNISDVNDNAPRFNQQLYTAY [PCDHGC5] | 2.41 ± 0.18 | 2.37 ± 0.2 |  |  |
| TISEFILSEDYNKMTPVKNYQAHQ [WDFY2] | 2.66 ± 0.16 | 2.78 ± 0.14 |  |  |
| TITIGMFPAVTVEVKSSIAGSSTW [SLC29A1] | 2.58 ± 0.6 | 2.4 ± 0.5 |  |  |
| TKDPDVAFHGLSLGLSLTNGLALG [PSD2] | 2.46 ± 0.21 | 2.43 ± 0.25 |  |  |
| TKEEGLALAREFSCPFFETSAAYR [RIT1] | 3.15 ± 0.29 | 3.13 ± 0.15 |  |  |
| TKELDQWIEQLNECKQLSESQVKS [PPP2CA] | 4.71 ± 0.094 | 4.69 ± 0.12 |  |  |
| TLYRPEEGYCQAQAPIAAVLLMHM [TBC1D10A] | 2.52 ± 0.42 | 2.43 ± 0.45 |  |  |
| TMDNKKGRRYEAVKWMVVFAIGVC [CLCN6] | 2.58 ± 0.35 | 2.64 ± 0.82 |  |  |
| TNLTWDQVITLDQVLDEVIPIHGK [TENT5D] | 2.47 ± 0.16 | 2.61 ± 0.3 |  |  |
| TPTPFFHTFAGDDCQAGLNFADED [WAS] | 4.86 ± 0.25 | 5 ± 0.07 |  |  |
| TPYLKETLNSIWNVEDHINPKLPN [POMT2] | 3.37 ± 0.28 | 3.45 ± 0.2 |  |  |
| TQGLPWRFEELLTCSHWPSFFPS [TEX19] |  |  | 2.78 ± 0.46 | 2.24 ± 0.87 |
| TQRQYKEDESQSEEENDYRNLDAS [CEP70] | 5.41 ± 0.25 | 5.51 ± 0.6 |  |  |
| TSFALERNLRTQQEIEDKMKGFSF [C8orf76] | 3.54 ± 0.19 | 3.53 ± 0.2 |  |  |
| TSVEEESFGPQPISRLEQCGINAN [RAD51] | 4.63 ± 0.39 | 4.63 ± 0.18 |  |  |
| TTIEDEDAKARKQEIIKTTEQLIE [CAMK2B] | 5.14 ± 0.22 | 5.32 ± 0.24 |  |  |
| TTPPGHGTLDNSKSMKPYNYCSAY [NEUROD6] | 3.27 ± 0.18 | 3.25 ± 0.17 |  |  |
| TTSEEAVGGATLAQTTSEAAMEGA [HDAC6] | 5.59 ± 0.34 | 5.43 ± 0.31 |  |  |

| Sequence | protein stability index [1] | protein stability index [2] | protein stability index [3] | protein stability index [4] |
| --- | --- | --- | --- | --- |
| TTTRHKRTANPSKTIDLGAAAHYT [CLINT1] | 3.94 ± 0.2 | 4.06 ± 0.16 |  |  |
| TVARPVFTEYQASAFGNVKLVVHD [RHOBTB3] | 3.06 ± 0.33 | 3.17 ± 0.23 |  |  |
| TVFRAILDYYKTGIIRCPDGISIP [BTBD10] | 3.01 ± 0.24 | 2.56 ± 0.43 |  |  |
| TVSSPIPYTPSPSSSRPISPGLSY [CCDC6] | 3.58 ± 0.1 | 3.61 ± 0.45 |  |  |
| TYRIRIEMSKDALPEKACQLDSRY [FBXO3] | 2.37 ± 0.12 | 2.57 ± 0.35 |  |  |
| VAGNPQDTRLRYSFFVPRPTPSTP [ADAMTS4] | 3.11 ± 0.36 | 3.18 ± 0.25 |  |  |
| VAKLESECLKRQGQREPGSLSRNN [FBXO34] | 4.77 ± 0.098 | 4.75 ± 0.35 |  |  |
| VAKLQESQPGNAVIDKETIDLLAF [SDE2] | 2.98 ± 0.48 | 3.29 ± 0.37 |  |  |
| VATNSAGTRYSAPANLYVRELREV [PTPRD] | 3.05 ± 0.32 | 3.45 ± 0.37 |  |  |
| VAWNGPRMGDADYLAAWHRLVLPI [HDAC6] | 2.52 ± 0.52 | 2.26 ± 0.25 |  |  |
| VCESMKEQLLVLVEWAKYIPAFCE [HNF4A] | 2.51 ± 0.38 | 2.34 ± 0.38 |  |  |
| VCLMGHERRQTLNLISLLALRVLA [TENT5C] | 2.72 ± 0.56 | 2.5 ± 0.37 |  |  |
| VCVGSDVTSIHKYMVRRYFNKPSR [MYORG] | 2.37 ± 0.2 | 2.34 ± 0.18 |  |  |
| VDGKTIKAQIWDTAGQERYRAITS [RAB11A] | 3.34 ± 0.19 | 3.68 ± 0.22 |  |  |
| VDNISTLDSEIKKNSDGMEAAGVQ [CD207] | 5.4 ± 0.37 | 5.49 ± 0.23 |  |  |
| VDPIGHVYIFATCLGLSYDGLLGD [MAGEA6] | 3.17 ± 0.45 | 3.1 ± 0.29 |  |  |
| VEGFRITLVDESDLYNWEVAIFGP [UBE2R2] | 2.84 ± 0.79 | 2.52 ± 0.68 |  |  |
| VEIVKSDFHKPFLGGFRHKVTGVE [IQUB] | 2.17 ± 0.23 | 2.5 ± 0.39 |  |  |
| VEKETQEKMTILQTYFRQNRDEVL [ATP6V1G1] | 3.61 ± 0.34 | 3.78 ± 0.26 |  |  |
| VEVDAAPAVDLNQVLNETRNQYEA [KRT33B] | 4.91 ± 0.29 | 5.17 ± 0.21 |  |  |
| VFEYCDHTLLNELERNPNGVADGV [CDKL4] | 3.89 ± 0.57 | 4.03 ± 0.55 |  |  |
| VFFLFPHSVLVDDDGIKVVKVTFN [TMEM106C] | 2.76 ± 0.45 | 2.65 ± 0.74 |  |  |

| Sequence | protein stability index [1] | protein stability index [2] | protein stability index [3] | protein stability index [4] |
| --- | --- | --- | --- | --- |
| VFLNLHTLKFYCLPDNYEIIDSSL [USP39] | 3.08 ± 0.48 | 2.58 ± 0.33 |  |  |
| VGIYATNSAEACQYVITHAKVNIL [ACSBG2] | 2.73 ± 0.69 | 2.38 ± 0.83 |  |  |
| VGRLKRERSMSENAVRQNGQLVRN [MFF] | 5 ± 0.16 | 4.94 ± 0.078 |  |  |
| VHVFGDELSLVTLFRCIQNMPETL [TNFSF13B] | 2.5 ± 0.31 | 2.58 ± 0.58 |  |  |
| VILEVSLEGSHDTANCEACTLGIC [RTP4] | 3.86 ± 0.13 | 3.78 ± 0.28 |  |  |
| VILSEIKEAVAALPPDVTTQSVMG [TCF25] | 2.77 ± 0.43 | 2.65 ± 0.2 |  |  |
| VKDEAHQAQKDPKKDRPLARRKSE [PPP2R5C] | 5.55 ± 0.25 | 5.43 ± 0.22 |  |  |
| VKDLIKKLLVVDRTRRLGNMKNGA [PRKX] | 2.62 ± 0.57 | 2.33 ± 0.56 |  |  |
| VKEDDKLIFHRHPVAQSTDAIRGK [SPSB1] | 4.56 ± 0.25 | 4.69 ± 0.25 |  |  |
| VKLGPALTPHIVQYQANKVTHTLT [PPEF2] | 2.35 ± 0.34 | 2.2 ± 0.42 |  |  |
| VKQEEDIKPPPPLVLNSQQSDTLE [RAD54B] | 5.42 ± 0.22 | 5.39 ± 0.33 |  |  |
| VLEAKMTMLTVIEQPVPPTPATPE [EMID1] | 3.72 ± 0.38 | 3.89 ± 0.24 |  |  |
| VLGGRRLRRAWFSWPRASPASGAS [SCNN1D] | 2.89 ± 0.35 | 2.86 ± 0.39 |  |  |
| VLSESSGPSNTSHSSSRDSHLSNG [C2CD2L] | 4.96 ± 0.28 | 5 ± 0.13 |  |  |
| VLSILHATLPGIFMLLLIFFAFLH [SOAT2] | 2.87 ± 0.32 | 3.17 ± 0.41 |  |  |
| VPDGLGLDEAREEEGDREVVLYG [TRIB3] |  |  | 4.96 ± 0.33 | 5.26 ± 0.28 |
| VPEEPPVKKLMRTSTPPPASVINN [ZBED1] | 4.89 ± 0.29 | 4.94 ± 0.19 |  |  |
| VPVKKQKTRTVFSSTQLCVLNDRF [NANOGP8] | 2.57 ± 0.23 | 2.77 ± 0.32 |  |  |
| VQKSIYSEFLKRFVEATRKWKVGI [ALDH8A1] | 2.75 ± 0.91 | 2.83 ± 0.54 |  |  |
| VRLDRVRGGRQKYKRRIDAENSPY [ESRRG] | 3.81 ± 0.25 | 3.75 ± 0.052 |  |  |
| VSTKEQILDLLVLEQFLSILPKEL [ZSCAN9] | 3.21 ± 0.93 | 3.02 ± 0.65 |  |  |
| VSVPENLPVGTQLLTVTATDRDEG [PCDHGA10] | 5.42 ± 0.38 | 5.27 ± 0.12 |  |  |
